Laboratory results published in publication PMC10874396, “Spatiotemporal and direct capturing global substrates of lysine-modifying enzymes in living cells” (Nature Communications, 2024).

Target: T1, PatZ-L813o-NBAK (E. coli, UniProt P76594 1-886, L813o-NBAK, o-NBAK (o-nitrobenzyl alcohol-derived lysine, unnatural amino acid photo-crosslinker) at 813)
T1 construct: PatZ, protein lysine acetyltransferase of E. coli, amber codon at L813 read as o-NBAK; o-NBAK is a lysine derivative; also called PatZ-L813o-NBAK mutant; o-NBAK encoded enzyme; source: E. coli BL21(DE3), in living cells; also purified (Ni-NTA) for in vitro crosslinking
T1 sequence (looked up): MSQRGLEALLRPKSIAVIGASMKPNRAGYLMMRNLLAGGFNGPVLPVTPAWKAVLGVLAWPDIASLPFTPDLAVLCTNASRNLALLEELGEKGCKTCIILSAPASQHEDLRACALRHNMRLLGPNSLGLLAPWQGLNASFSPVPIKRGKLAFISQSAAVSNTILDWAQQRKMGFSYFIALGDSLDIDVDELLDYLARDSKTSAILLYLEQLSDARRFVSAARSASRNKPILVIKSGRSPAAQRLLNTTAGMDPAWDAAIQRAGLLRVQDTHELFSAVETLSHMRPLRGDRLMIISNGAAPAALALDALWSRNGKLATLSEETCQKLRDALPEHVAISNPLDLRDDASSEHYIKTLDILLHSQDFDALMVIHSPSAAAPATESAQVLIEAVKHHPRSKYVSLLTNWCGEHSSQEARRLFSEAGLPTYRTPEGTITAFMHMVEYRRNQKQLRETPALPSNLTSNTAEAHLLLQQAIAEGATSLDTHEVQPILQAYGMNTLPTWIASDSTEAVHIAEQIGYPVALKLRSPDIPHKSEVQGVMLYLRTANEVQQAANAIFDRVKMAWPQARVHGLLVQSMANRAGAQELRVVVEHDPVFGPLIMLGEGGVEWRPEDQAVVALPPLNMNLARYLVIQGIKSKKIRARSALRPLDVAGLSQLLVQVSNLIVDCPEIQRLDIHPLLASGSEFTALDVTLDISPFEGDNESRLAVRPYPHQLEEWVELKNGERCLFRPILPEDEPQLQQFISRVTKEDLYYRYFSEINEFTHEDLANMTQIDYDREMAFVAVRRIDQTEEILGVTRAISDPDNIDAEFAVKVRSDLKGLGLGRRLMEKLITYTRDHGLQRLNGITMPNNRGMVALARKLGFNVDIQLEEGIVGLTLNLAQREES
Experiment: cross-linking; in vitro: purified o-NBAK enzyme mixed with purified partner protein in PBS 150 mM NaCl pH 7.5, 365 nm UV 15 min on ice, SDS-PAGE, extra band cut, LC-MS/MS of crosslinked peptides
Settings: both partners purified

B1: DnaJ (purified recombinant) (natural protein, E. coli, UniProt P08622 1-376, looked up)
chain: MAKQDYYEILGVSKTAEEREIRKAYKRLAMKYHPDRNQGDKEAEAKFKEIKEAYEVLTDSQKRAAYDQYGHAAFEQGGMGGGGFGGGADFSDIFGDVFGDIFGGGRGRQRAARGADLRYNMELTLEEAVRGVTKEIRIPTLEECDVCHGSGAKPGTQPQTCPTCHGSGQVQMRQGFFAVQQTCPHCQGRGTLIKDPCNKCHGHGRVERSKTLSVKIPAGVDTGDRIRLAGEGEAGEHGAPAGDLYVQVQVKQHPIFEREGNNLYCEVPINFAMAALGGEIEVPTLDGRVKLKVPGETQTGKLFRMRGKGVKSVRGGAQGDLLCRVVVETPVGLNERQKQLLQELQESFGGPTGEHNSPRSKSFFDGVKKFFDDLTR
notes: DnaJ, E. coli; may be in the Supplementary Information
  binding result: binds
